Test results from US20190106487A1 (Sanofi, published 2019).
Residue numbers refer to the chain shown, from its start. Values belong to the binder of their own block, whether it stands above or below them.

How the values were obtained:
[1] = target: T1, rhIL-1RAcP/Fc Chimera (human, UniProt Q9NPH3 21-359); test: ELISA, primary supernatant, coated hu-IL-1RAcP-Fc
T1 construct: also called P013_03; P013-03
T1 sequence (looked up): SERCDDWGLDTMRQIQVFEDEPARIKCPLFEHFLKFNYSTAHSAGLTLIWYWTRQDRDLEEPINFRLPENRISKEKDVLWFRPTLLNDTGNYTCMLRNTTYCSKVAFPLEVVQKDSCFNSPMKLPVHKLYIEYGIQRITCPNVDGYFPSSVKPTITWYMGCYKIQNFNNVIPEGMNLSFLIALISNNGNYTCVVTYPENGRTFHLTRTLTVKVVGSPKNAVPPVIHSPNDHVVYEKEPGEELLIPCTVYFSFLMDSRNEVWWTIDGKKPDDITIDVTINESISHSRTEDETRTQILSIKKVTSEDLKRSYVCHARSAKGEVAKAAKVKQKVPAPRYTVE
From the text: Microtiter plates were coated IL-1RACP and/or IL12Rβ1 protein (recombinant Fc chimeric conjugates of human IL-1RACP or IL12Rβ1). After a blocking process, specific antibodies from B-cell supernatants bind to the targets and are then detected by a POD-labeled anti-rabbit IgG antibody. The IL12Rβ1 binding was used as a counterscreen. IL-1RACP protein was tagged with a linker, huFc and His like the IL12Rβ1 protein. Antibodies which bind to the tag were positive in both assays, whereas antigen specific antibodies just bound to IL-1RACP and not to IL12Rβ1.
12.5 μL 0.5 μg/mL IL-1RACP protein in PBS was transferred to a microtiter plate, incubated and washed 3× with Wash Buffer. 90 μL Block Buffer was added to each well, incubated and washed. 12.5 μl Standard Antibody (rabbit mAb against IL-1RAcP, anti IL12Rbeta1 antibody: IL-12Rbeta1 antibody; GeneTex; Cat. No. GTX103917) or sample diluted in ELISA buffer was added, incubated and washed. 12.5 μl 1:5000 POD-Antibody (Anti-rabbit IgG, peroxidase-linked species-specific Fab2 fragment (from donkey) (ECL); assay dilution: 1:5000) in Elisa Buffer was added, incubated and washed. 15 μl TMB was added and 15 μl HCl was added after sufficient development. Absorbance (Optical Density O.D.) was read at 450 nm/620 nm.

[2] = target: T2, human IL-1RAcP on 293T/17-FR cells (human, UniProt Q9NPH3 21-570); test: cell-based or functional assay
T2 sequence (looked up): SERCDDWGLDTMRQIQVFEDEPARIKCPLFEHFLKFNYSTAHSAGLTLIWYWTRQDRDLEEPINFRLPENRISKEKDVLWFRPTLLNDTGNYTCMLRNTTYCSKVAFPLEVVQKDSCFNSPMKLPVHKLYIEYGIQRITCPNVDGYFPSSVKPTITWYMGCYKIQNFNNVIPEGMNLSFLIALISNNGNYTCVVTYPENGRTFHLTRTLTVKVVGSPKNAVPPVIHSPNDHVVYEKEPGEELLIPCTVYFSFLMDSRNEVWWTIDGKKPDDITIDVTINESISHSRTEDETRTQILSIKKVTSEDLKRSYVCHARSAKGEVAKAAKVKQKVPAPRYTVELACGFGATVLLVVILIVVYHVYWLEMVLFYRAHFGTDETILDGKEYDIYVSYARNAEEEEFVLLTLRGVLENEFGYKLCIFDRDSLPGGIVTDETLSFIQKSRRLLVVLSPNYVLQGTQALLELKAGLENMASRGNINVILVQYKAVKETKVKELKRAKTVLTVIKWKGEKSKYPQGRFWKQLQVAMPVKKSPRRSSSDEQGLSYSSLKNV

[3] = target: T1, rhIL-1RAcP/Fc Chimera; test: ELISA, recombinant purified mAb

hu-IL1RaP ELISA (OD) [1]: 4 OD
functional reporter gene assay (% inhibition), 0.04 µg/mL mAb [2]: 44%
functional reporter gene assay (% inhibition), 0.2 µg/mL mAb [2]: 68%
functional reporter gene assay (% inhibition), 1 µg/mL mAb [2]: 88%
functional reporter gene assay (% inhibition), 5 µg/mL mAb [2]: 92%
primary supernatant functional assay (% inh.), NF-kB luciferase reporter [2]: 99%
B1: P013.S.01.B.D02 (antibody, V domains shown)
VH: LEQSGGGAEGGLVKPGGSLELCCKASGFSLTTNYWICWVRQAPGKGLEWIGCIYANSVGSTYYASWVNGRFTLSRDIDQSTGCLQLNSLTAADTAMYYCARVDPGYSFDAFDPWGPGTLVTVSS
VL: ALVMTQTPSPVSAAVGGTVTINCQASEDIYSNLAWFQQKPGQPPKLLIYRASTLASGVPSRFSGSGSGTEFTLTISALQSDDAATYYCLGVRTYFNTLNNSFGGGTEVVVK
notes: rabbit monoclonal antibody; also called P013.A.00022.E06

hu-IL1RaP ELISA (OD) [1]: 3.4 OD
functional reporter gene assay (% inhibition), 0.04 µg/mL mAb [2]: 26%
functional reporter gene assay (% inhibition), 0.2 µg/mL mAb [2]: 66%
functional reporter gene assay (% inhibition), 1 µg/mL mAb [2]: 77%
functional reporter gene assay (% inhibition), 5 µg/mL mAb [2]: 62%
primary supernatant functional assay (% inh.), NF-kB luciferase reporter [2]: 93%
B2: P013.S.01.B.D05 (antibody, V domains shown)
VH: EQSGGGAEGGLVKPGGSLELYCKASGFSLSSDAWICWVRQAPGKGLEWIGCIYAGSASNTYYATWVNGRFTLSRDIAQSTGCLQLNSLTAADTAMYYCARDRGYDDYGDITRLDLWGQGTLVTVSS
VL: B1 VL with M4L, A77G, R92Y, F95L, N96S, T97D, N99F, N100F, S101V
notes: rabbit monoclonal antibody; also called P013.A.00085.G03

hu-IL1RaP ELISA (OD) [1]: 3.6 OD
functional reporter gene assay (% inhibition), 0.04 µg/mL mAb [2]: 24%
functional reporter gene assay (% inhibition), 0.2 µg/mL mAb [2]: 39%
functional reporter gene assay (% inhibition), 1 µg/mL mAb [2]: 75%
functional reporter gene assay (% inhibition), 5 µg/mL mAb [2]: 94%
primary supernatant functional assay (% inh.), NF-kB luciferase reporter [2]: 95%
B3: P013.S.02.B.B01 (antibody, V domains shown)
VH: QSLEESGGRLVTPGTPLTLTCTVSGFSLSGYAMSWVRQAPGKGLEWIGIIYAGSGGTYYASWVKGRFTISKTSTTVDLKITSLTTEDTATYFCARAVPDDSAGKKLWGQGTLVTVSS
VL: DIVMTQTPASVEAAVGGTITINCQASENIYSSLAWYQQKPGQPPKLLIYDASTLASGVSSRFKGSGSGTQFTLTISGVQSDDAATYYCQSYYCSVSSSCGYGFGGGTEVVVK
notes: rabbit monoclonal antibody; also called P013.A.00088.A11

EC50 [3]: 0.44 µg/mL
hu-IL1RaP ELISA (OD) [1]: 3.4 OD
functional reporter gene assay (% inhibition), 0.04 µg/mL mAb [2]: 26%
functional reporter gene assay (% inhibition), 0.2 µg/mL mAb [2]: 59%
functional reporter gene assay (% inhibition), 1 µg/mL mAb [2]: 87%
functional reporter gene assay (% inhibition), 5 µg/mL mAb [2]: 94%
primary supernatant functional assay (% inh.), NF-kB luciferase reporter [2]: 102%
B4: P013.S.01.B.F03 (antibody, V domains shown)
VH: LEQSGGGAEGGLVKPGGSLELCCKASGFSLGSSYWICWVRQAPGKGLEWIGCIYAGSSGITYYASWVSGRFTLSRDIDQSTGCLQLNSLTAADTAMYYCARDIYASTSGYDLWGQGTLVTVSS
VL: ALVMTQTPSPVSAAVGGTVTINCQASEDIYSNLAWFQQKPGQPPKLLIYQASTLASGVPSRFSGSGSGTEFTLTISGLQSDDAAAYYCLGVCTYIGADNTLYNTFGGGTEVVVK
notes: rabbit monoclonal antibody; also called P013.A.00025.F02

hu-IL1RaP ELISA (OD) [1]: 3.2 OD
functional reporter gene assay (% inhibition), 0.04 µg/mL mAb [2]: 7%
functional reporter gene assay (% inhibition), 0.2 µg/mL mAb [2]: 26%
functional reporter gene assay (% inhibition), 1 µg/mL mAb [2]: 35%
functional reporter gene assay (% inhibition), 5 µg/mL mAb [2]: 52%
primary supernatant functional assay (% inh.), NF-kB luciferase reporter [2]: 66%
B5: P013.S.02.B.C05 (antibody, V domains shown)
VH: QSLEESGGRLVTPGTPLTLSCTASGFSLSTYYMSWVRQAPGKGLEWIGYMHVGGFPVYASWAKGRFTISKTSTTVDLKITSPTIEDTATYFCARDFGPPNWTLDLWGQGTLVTVSS
VL: DVVMTQTPASVEAAVGGTVTIKCQASQSISSYCSWYQQKPGQPPKLLIYRASTLESGVPSRFKGSGSGTEFTLTISDLESADAATYYCQSSYYDLLGNGFGGGTEVVVK
notes: rabbit monoclonal antibody; also called P013.A.00085.F10
